Among the data in PMC8265312 are percent reduction of cell-bound PspA by GAPDH70 and Kd values, retold here.

Experiment [1] concerns the target endogenous huGAPDH on the surface of dying A549 cells (human (endogenous in A549)) (UniProt P04406). Kind of experiment: competition of binding to cells, cell-bound PspA detected by immunoblot. Background: A western blot detects proteins with antibodies after separation by electrophoresis.
In experiment [2] the target is recombinant human GAPDH (human) (UniProt P04406). Kind of experiment: SPR.

With “recombinant His-tagged PspA (pneumococcal surface protein A) composed of the αHD and PRD (domain or fragment)”, the percent reduction of cell-bound PspA by GAPDH70 in experiment [1] came to 50%. Further, the Kd (in general, the free concentration of one partner at which half of the binding sites on the other are occupied at equilibrium, for simple one-to-one binding) in experiment [2] was determined as 2950 nM.
